Data on one molecule can be found in publication PMC2879156.

Data set [1] addresses T1, SarA (Staphylococcus aureus, UniProt Q7A1N5 1-124).
T1 sequence: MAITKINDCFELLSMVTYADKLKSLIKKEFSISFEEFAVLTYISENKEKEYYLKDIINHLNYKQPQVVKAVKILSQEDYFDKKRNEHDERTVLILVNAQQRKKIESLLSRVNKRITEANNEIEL
Description: EMSA. In general terms: A gel shift assay detects complexes by their altered migration in electrophoresis.

Data set [2] addresses SarA C9A (Staphylococcus aureus, UniProt Q7A1N5 1-124, C9A). The data set is described as follows: EMSA.

B1: agr B1/B2 (dsDNA)
DNA 1: ATGTTAAAATATTAAATACAAATTACATTTAACAGTTAAGTATTTATTTCCTACAGTTA
DNA 2: TAACTGTAGGAAATAAATACTTAACTGTTAAATGTAATTTGTATTTAATATTTTAACAT
For the molecule B1, the binding result in data set [1] and in data set [2] was “binds” throughout.
